Laboratory results taken from patent US20190316133, “Anti-Fibrinogen Aptamers and Uses Thereof” (Laboratoire Francais du Fractionnement et des …, published 2019).

B1: SEQ ID NO:1 aptamer (ssDNA)
DNA: GGGTCAATGCCAGGTCTCGGACCTGGAATCCGCCACCCGCATTAGAACCAGGGTTGACATCGGCTCGCAAGCAGTC
B2: SEQ ID NO:60 aptamer (ssDNA)
DNA: GGGTCAATGCCAGGTCTCTGCGTACTTATCTCGATGTGGTTGGTAGGGATAGGTGTATATCGGCTCGCAAGCAGTC
B3: SEQ ID NO:58 aptamer (ssDNA)
DNA: GGGTCAATGCCAGGTCTCAACTTTCGCGTGTGGTTGGTAGGGCTAGGTGTATACGCATATCGGCTCGCAAGCAGTC
B4: A5-2.9 (core of SEQ ID NO:58) (ssDNA)
DNA: CGCGTGTGGTTGGTAGGGCTAGGTGTATACGCAT
B5: SEQ ID NO:65 aptamer (ssDNA)
DNA: GGGTCAATGCCAGGTCTCGAGCCGGTGTTGTGTTATGTTGGTAGGGAAGGTGTATAATATCGGCTCGCAAGCAGTC
B6: A5-1.9 (core of SEQ ID NO:1) (ssDNA)
DNA: GGGTCAATGCCAGGTCTCGGACCTGGAATCCGCCACCCGCATTAGAACCAGGGTTGAC

Legend:
[1] = target: T1, fibrinogen (transgenic human, from milk of transgenic cows) (Homo sapiens, UniProt P02671-2;P02675;P02679 P02671-2:20-644,P02675:31-491,P02679:27-453); assay: SPR; high affinity; pH-dependent; conditions: tags: none; 97% purity; chain copies: 2
T1 sequence (P02671 other isoform, or with tags, fused parts or gaps, chain 1 of 3): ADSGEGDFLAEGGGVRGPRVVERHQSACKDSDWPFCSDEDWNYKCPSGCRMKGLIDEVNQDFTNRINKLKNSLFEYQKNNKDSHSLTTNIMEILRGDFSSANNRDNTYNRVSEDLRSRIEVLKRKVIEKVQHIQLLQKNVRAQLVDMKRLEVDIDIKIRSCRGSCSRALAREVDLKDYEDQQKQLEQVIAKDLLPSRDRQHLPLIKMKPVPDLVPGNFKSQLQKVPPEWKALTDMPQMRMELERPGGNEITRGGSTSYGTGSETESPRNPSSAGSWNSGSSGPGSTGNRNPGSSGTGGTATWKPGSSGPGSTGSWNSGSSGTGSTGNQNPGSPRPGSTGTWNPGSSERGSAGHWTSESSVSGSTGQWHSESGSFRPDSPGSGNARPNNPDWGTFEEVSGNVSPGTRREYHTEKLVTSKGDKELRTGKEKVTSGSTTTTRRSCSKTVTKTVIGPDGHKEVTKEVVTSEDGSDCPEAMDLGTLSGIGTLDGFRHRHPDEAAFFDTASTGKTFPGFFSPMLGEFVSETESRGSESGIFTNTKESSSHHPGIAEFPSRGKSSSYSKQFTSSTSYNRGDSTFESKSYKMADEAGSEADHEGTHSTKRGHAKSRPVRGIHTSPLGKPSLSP
T1 sequence (P02675 31-491, chain 2 of 3): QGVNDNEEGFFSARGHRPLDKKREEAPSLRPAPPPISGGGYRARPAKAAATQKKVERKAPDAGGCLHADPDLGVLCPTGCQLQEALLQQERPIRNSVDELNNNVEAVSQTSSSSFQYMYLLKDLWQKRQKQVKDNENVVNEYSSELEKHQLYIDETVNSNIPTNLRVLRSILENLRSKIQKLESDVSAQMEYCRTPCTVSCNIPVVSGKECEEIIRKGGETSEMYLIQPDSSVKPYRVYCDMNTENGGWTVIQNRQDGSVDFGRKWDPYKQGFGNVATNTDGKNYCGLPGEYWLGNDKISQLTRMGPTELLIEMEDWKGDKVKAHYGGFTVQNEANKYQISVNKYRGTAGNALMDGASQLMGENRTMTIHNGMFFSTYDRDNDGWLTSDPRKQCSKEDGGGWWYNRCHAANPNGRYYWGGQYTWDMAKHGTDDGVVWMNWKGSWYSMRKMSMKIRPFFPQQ
T1 sequence (P02679 27-453, chain 3 of 3): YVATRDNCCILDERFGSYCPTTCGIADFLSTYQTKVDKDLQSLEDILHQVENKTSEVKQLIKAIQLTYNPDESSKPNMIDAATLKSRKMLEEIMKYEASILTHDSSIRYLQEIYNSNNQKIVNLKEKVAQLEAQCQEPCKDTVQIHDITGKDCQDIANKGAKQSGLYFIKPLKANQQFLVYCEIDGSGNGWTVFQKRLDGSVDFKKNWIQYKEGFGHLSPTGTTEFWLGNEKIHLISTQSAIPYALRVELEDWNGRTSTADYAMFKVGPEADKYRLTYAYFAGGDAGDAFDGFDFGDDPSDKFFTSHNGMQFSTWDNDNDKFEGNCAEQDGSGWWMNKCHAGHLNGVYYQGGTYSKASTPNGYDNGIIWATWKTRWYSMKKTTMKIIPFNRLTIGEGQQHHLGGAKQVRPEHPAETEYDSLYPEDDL
Protocol: (§1) The selected aptamer was synthetized with Biotin and a triethylene glycol spacer at the 5′ end of the oligonucleotide. A 1 μM solution of the aptamer was prepared using the SELEX selection buffer. The aptamer solution was heated to 90° C. for 5 min, incubated on ice for 5 min and equilibrated to room temperature for 10 min. The preparation was injected on a streptavidin coated sensor chip SA of Biacore T200 instrument (GE Healthcare) at a flow rate of 10 μl/min for 7 min. Then, different concentrations of the target were injected to the immobilised aptamer at 30 μl/min for 1 minute. After dissociation for 1-2 min a wash step was performed by injecting a suitable wash buffer at 30 μl/min for 1 min. For elution, a suitable elution buffer was injected at 30 μl/min for 1-2 min. Finally the sensor chip was regenerated by injection of 50 mM NaOH at 30 μl/min for 30 sec. During the course of the experiment the response signal was recorded in a sensorgram.
The core sequences of aptamers SEQ ID NO:1 and SEQ ID NO:58 (namely the minimal sequence binding to fibrinogen) were determined. The aptamer of SEQ ID NO:66 corresponds to the core sequence of aptamer of SEQ ID NO:1. The aptamer of SEQ ID NO:67 is the core sequence of aptamer of SEQ ID NO:58. FIGS. 3A-3D show the binding profile obtained for the core sequences of aptamers of SEQ ID NO:1 and NO:58 by SPR. […]

[2] = target: T1, fibrinogen (transgenic human, from milk …); assay: SPR; high affinity stated; conditions: tags: none; 97% purity; chain copies: 2; label: 5' biotin-triethylene glycol
Protocol: as §1

[3] = target: T1, fibrinogen (transgenic human, from milk …); assay: SPR; dose-dependent 125-1000 nM at pH 6.3; not eluted by 1 M NaCl; released at pH 7.4 with 2 M MgCl2; conditions: tags: none; 97% purity; chain copies: 2; label: 5' biotin-triethylene glycol
Protocol: (§2) Each solution of transgenic fibrinogen was injected at pH 6.3 whereby a complex was formed in a dose-dependent manner as evidenced by the increase of the signals depending on the concentration of fibrinogen. […] Fibrinogen was then released from the complex by an elution buffer at pH 7.40 and containing MgCl₂ at 2M. The solid support was then regenerated by injecting a solution of NaOH at 50 mM. X-axis: time in s. Y-axis: SPR response in arbitrary scale.
as §1, with “Finally the sensor chip was regenerated by injection of 50 mM NaOH at 30 μl/min for 30 sec.” left out

[4] = target: T1, fibrinogen (transgenic human, from milk …); assay: SPR; dose-dependent 125-1000 nM at pH 6.3; not eluted by 0.5 M NaCl; released at pH 7.4; conditions: tags: none; 97% purity; chain copies: 2; label: 5' biotin-triethylene glycol
Protocol: as §2, with “7.40.” for “7.40 and containing MgCl₂ at 2M.”, “scale” for “scale.”
as §1

Binder | binding result [1] | binding result [2] | other results
B1 | binds |  | 
B2 |  | binds | 
B3 | binds |  | 
B4 |  |  | binding result [3]: binds
B5 |  | binds | 
B6 |  |  | binding result [4]: binds
